Experimental data taken from publication PMC6755802 (The Journal of Biological Chemistry, 2019).

T1: Super-2/IL-2Rβ binary complex (human, UniProt P60568;P14784)
T1 construct: human IL-2Rβ ectodomain, amino acids 1-214; also called stabilized Super-2/IL-2Rβ binary complex; source: baculovirus expression system, purified (nickel chromatography, SEC)
T1 chain 1: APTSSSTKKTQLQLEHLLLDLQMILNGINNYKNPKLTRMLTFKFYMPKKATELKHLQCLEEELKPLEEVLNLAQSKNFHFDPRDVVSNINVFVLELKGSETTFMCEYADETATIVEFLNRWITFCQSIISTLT
T1 chain 2: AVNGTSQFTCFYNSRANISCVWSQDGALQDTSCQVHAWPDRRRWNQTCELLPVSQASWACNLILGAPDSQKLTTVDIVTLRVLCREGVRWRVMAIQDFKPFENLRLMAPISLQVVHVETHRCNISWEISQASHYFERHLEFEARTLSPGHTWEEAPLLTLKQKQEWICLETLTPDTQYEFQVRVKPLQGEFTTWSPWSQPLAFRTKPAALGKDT

B1: affinity-matured IL-2 binary complex stapler scFv, yeast-displayed (scFv, V domains shown)
VH: QVQLQQSGPGLVKPSQTLSLTCAISGDSVSSNSATWNWIRQSPSRGLEWLGRTYYRSKWYDDYAVSVKSRITINPDTSKNQFSLQLNSVTPEDTAVYYCARATYGTYDYWGQGTLVTVSS
VL: NFMLTQPHSASESPGKTVTISCTGSRGSIASNYVQWYQQRPGSAPTTVIYEDNQRPSGVPDRFSGSIDSSSNSASLTISGLKTEDEADYYCQSYDQNYHAVFGGGTQLTVL
notes: as the scFv of m6 with changes in the VH and VL CDR3 regions; also called amIL-2B stapler; amIL-2BC stapler; source: site-directed mutagenic library of IL-2B stapler
B2: affinity-matured IL-2 binary complex stapler scFv, recombinantly expressed (scFv, V domains shown)
VH: QVQLQQSGPGLVKPSQTLSLTCAISGDSVSSNSATWNWIRQSPSRGLEWLGRTYYRSKWYDDYAVSVKSRITINPDTSKNQFSLQLNSVTPEDTAVYYCARATYGTYDYWGQGTLVTVSS
VL: NFMLTQPHSASESPGKTVTISCTGSRGSIASNYVQWYQQRPGSAPTTVIYEDNQRPSGVPDRFSGSIDSSSNSASLTISGLKTEDEADYYCQSYDQNYHAVFGGGTQLTVL
notes: VH of amIL-2B stapler; as the VH of m8 with changes in CDR3; 15-amino acid (Gly4Ser)3 linker; VL of amIL-2B stapler; as the VL of m8 with changes in CDR3; Biotinylated for immobilisation in SPR; also called amIL-2B stapler; amIL-2BC stapler; source: baculovirus system (pAcGP67A), purified (nickel chromatography, SEC)

What was measured:
[1] = target: T2, IL-2Rβ ectodomain, biotinylated (for staining of yeast) (Homo sapiens, UniProt P14784, biotin (site not stated)); experiment: flow cytometry on cells; scFv displayed on yeast; 1 μM of the indicated biotinylated complex components in PBE buffer, 2 h at room temperature; detection with 50 nM SA-647; settings: one partner purified
T2 construct: human IL-2Rβ ectodomain, amino acids 1-214; also called the receptor; source: baculovirus expression system, purified (nickel chromatography, SEC)

[2] = target: T3, IL-2, biotinylated (for staining of yeast) (Homo sapiens, UniProt P60568, biotin (site not stated)); experiment: as above; settings: one partner purified
T3 construct: human IL-2, amino acids 1-133; also called interleukin-2; the cytokine; source: baculovirus expression system, purified (nickel chromatography, SEC)

[3] = target: T4, IL-2/IL-2Rβ binary complex (Homo sapiens, UniProt P60568;P14784); experiment: as above; settings: one partner purified
T4 construct: human IL-2, amino acids 1-133; human IL-2Rβ ectodomain, amino acids 1-214; also called IL-2 BC; IL-2 binary complex; source: baculovirus expression system, purified (nickel chromatography, SEC)

[4] = target: T1, Super-2/IL-2Rβ binary complex; experiment: SPR; biotinylated scFv immobilised on Biacore SA chip at low density; analytes flowed 60 s; complexes pre-incubated 30 min at room temperature; 25 °C; HBS-P+ with 0.2% BSA; KD from equilibrium titration, 1:1 model; in Fig. 1D all proteins at 60 μM; settings: both partners purified

Binder | binding result [1] | binding result [2] | binding result [3] | Kd [4] [nM]
B1 | no binding (tested: 1 μM) | no binding (tested: 1 μM) | binds | –
B2 | – | – | – | 15
